Publication PMC5580658

Legend:
Hfq [1] = molecular target: T1, Hfq (Escherichia coli, UniProt P0A6X3 1-102); assay: EMSA
Hfq [2] = molecular target: T1, Hfq; assay: EMSA; remark: listed apart in the source

T1 sequence (P0A6X3 whole entry): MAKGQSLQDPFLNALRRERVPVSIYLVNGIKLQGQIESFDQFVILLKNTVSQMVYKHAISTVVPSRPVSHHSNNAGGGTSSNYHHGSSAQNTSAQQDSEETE

B1: mutS leader ARN3* (structured_RNA)
RNA: GGUGCGCCUUAUGUGAUUACAACGAAAAUAAAAACCAUCACACCCCAUUUAAUAUCAGGGAACCGGACAUAACCCCAUGAGUGCCAUCGAGAAUUUCGACGCCCAU
Kd (Hfq [1]): ~19 nM

B2: mutS leader ARN1* (structured_RNA)
RNA: GGUGCGCCUUAUGUGAUUACAACGAACGUAUAUACCAUCACACCCCAUUUAAUAUCAGGGAACCGGACAUAACCCCAUGAGUGCAAUAGAAAAUUUCGACGCCCAU
binding signal (Hfq [2]): ~3 fold lower affinity than WT
